Biological target: PCSK9抗原 (前蛋白转化酶枯草溶菌素9, Proprotein convertase subtilisin/kexin type 9)
Test: SPR, Biacore T200, PCSK9 coupled to CM5 chip (~790 RU), VHH as analyte 218-13.5 nM

B1: PCSK9单域抗体VHHH12 (VHH)
VHH: QVQLQESGGGLVQAGGSLRLSCAASGRTFSDYAVGWFRQAPGKEREFVAGIGWSGGQTTYADSVKGRFTISRDNAKDTVYLQMNSLKPEDTAVYVCAASFLVIPGTVKTRYDSWGQGTQVTVPA
notes: Alpaca VHH expressed from pMECS in E. coli HB2151 and purified on a Ni column; also called 抗PCSK9单域抗体VHHH12; PCSK9单域抗体蛋白VHHH12; not shown: C-terminal tags from the pMECS vector (HA tag, detected with anti-HA antibody)
  Kd: 2.63 nM
  koff: 0.000584 s⁻¹
  kon: 222000 M⁻¹ s⁻¹
